From article doi:10.1101/2021.10.25.465661 (bioRxiv, 2021)

Target: the molecule itself
Assay: SEC-MALS

B1: Qin eTud3 (Qin 959-1195) (domain or fragment, Drosophila melanogaster, UniProt Q9VE55 959-1195, looked up)
chain: VRPVELSPYRMPDNTERNKRTTVNILYVRKPDEFYVTLPHFQKAINNLQKSVQKAAAAMYQNMLPRTDWQVGDMCYARVQANCDSQALWYRGVVTGVIPPGITCPIVRYQVHLRDLGELIDDVHSSSLANIDEADMRISSSAKRCHLHGIRPIGDEWSKDAIDFFMDQLKAYNEIHVTGRGRTENSLSVILWGSLSILTGPFSPATIKYVNINKALLMAGMAEKDHNSDSEDDQQSM
In the case of B1, the “stoichiometry N” value is reported as 2.
